From paper doi:10.1101/2024.07.03.601791

Molecular target: PR20 modified with a dansyl group at the N-terminus (Dnc-PR20)
Test: other fluorescence titration

Chain of Kapβ2 Δloop (Q92973 9-898, stated change not applied): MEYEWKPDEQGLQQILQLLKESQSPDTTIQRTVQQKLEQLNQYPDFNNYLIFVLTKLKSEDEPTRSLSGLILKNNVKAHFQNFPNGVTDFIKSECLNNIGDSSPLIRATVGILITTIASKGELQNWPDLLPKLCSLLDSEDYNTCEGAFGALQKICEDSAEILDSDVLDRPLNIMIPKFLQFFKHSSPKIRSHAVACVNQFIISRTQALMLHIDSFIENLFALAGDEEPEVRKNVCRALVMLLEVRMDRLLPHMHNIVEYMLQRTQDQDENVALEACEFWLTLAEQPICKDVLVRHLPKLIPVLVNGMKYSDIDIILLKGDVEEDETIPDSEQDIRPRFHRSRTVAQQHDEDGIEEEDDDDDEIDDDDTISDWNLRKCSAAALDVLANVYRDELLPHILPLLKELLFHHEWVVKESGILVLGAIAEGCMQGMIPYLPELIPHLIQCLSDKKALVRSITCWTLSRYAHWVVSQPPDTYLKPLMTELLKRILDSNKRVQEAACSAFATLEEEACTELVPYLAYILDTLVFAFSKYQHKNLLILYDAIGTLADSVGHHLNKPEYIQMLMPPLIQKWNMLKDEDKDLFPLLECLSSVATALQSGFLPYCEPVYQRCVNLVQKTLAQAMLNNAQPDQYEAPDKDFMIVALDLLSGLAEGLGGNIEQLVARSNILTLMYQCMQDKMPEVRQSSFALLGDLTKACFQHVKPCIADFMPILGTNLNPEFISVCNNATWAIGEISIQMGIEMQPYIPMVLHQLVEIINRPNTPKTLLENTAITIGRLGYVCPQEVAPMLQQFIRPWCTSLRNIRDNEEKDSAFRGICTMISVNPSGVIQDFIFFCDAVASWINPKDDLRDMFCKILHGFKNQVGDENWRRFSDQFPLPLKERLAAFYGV

Kd: 0.31 µM
Substance: Kapβ2 Δloop (from UniProt Q92973-2 1-890) (natural protein)
